Data published in patent US20250049939A1 (TUBULIS, published 2025).

What was measured:
c-KIT on Ba/F3 cells = molecular target: T1, c-KIT on Ba/F3 cells (UniProt P10721 26-976, limits assumed); assay: flow cytometry, cell surface binding to Ba/F3 pMIY cells expressing c-KIT, MFI ratio normalized to IgG1, mean ± s.d. of n=3
T1 construct: whole, on cells

VEGFR-2 on Ba/F3 cells = molecular target: T2, VEGFR-2 on Ba/F3 cells (UniProt P35968 20-1356, limits assumed); assay: flow cytometry, cell surface binding to Ba/F3 pMIY cells expressing VEGFR, MFI ratio normalized to IgG1, mean ± s.d. of n=3
T2 construct: whole, on cells
T2 sequence (P35968 20-1356 limits assumed): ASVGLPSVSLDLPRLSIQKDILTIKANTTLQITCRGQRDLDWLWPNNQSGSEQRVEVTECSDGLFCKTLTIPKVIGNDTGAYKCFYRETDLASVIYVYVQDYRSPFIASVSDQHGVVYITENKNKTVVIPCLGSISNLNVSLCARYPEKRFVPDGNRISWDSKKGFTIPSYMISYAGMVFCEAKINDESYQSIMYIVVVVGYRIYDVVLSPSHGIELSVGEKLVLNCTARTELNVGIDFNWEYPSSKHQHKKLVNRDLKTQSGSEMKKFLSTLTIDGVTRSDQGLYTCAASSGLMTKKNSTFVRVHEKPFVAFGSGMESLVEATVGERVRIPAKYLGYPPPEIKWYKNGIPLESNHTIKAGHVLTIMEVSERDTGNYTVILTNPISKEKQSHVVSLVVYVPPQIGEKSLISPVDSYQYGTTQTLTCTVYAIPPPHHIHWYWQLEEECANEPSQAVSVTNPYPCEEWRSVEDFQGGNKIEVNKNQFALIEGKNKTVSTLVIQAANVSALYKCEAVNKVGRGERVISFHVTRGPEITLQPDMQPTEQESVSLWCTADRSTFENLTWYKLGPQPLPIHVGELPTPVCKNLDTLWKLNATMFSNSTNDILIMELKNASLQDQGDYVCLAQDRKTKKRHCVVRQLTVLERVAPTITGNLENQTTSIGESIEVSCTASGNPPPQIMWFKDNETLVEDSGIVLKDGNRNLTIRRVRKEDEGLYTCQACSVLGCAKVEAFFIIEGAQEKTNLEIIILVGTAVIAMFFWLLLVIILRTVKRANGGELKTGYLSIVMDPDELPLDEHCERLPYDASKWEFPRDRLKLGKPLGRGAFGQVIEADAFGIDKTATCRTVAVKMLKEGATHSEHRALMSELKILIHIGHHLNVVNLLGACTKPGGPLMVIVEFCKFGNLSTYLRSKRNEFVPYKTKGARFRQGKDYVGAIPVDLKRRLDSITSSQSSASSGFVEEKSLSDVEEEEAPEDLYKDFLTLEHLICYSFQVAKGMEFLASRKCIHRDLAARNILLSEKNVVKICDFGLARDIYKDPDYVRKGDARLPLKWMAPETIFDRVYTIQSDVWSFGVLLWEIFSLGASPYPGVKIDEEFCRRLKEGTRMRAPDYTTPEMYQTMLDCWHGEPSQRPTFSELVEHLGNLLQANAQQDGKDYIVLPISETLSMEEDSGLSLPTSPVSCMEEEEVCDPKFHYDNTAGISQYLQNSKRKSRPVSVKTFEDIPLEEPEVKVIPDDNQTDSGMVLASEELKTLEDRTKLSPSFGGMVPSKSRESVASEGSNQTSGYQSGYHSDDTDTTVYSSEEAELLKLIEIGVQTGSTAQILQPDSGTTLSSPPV

[1] = molecular target: T3, human wildtype FLT3 expressed on Ba/F3 cells (human, UniProt P36888 27-993); assay: flow cytometry, cell surface binding to Ba/F3 cells expressing human FLT3 (results of FIG. 14 summarized)
T3 construct: also called hFLT3 wt; Ba/F3-FLT3
T3 sequence: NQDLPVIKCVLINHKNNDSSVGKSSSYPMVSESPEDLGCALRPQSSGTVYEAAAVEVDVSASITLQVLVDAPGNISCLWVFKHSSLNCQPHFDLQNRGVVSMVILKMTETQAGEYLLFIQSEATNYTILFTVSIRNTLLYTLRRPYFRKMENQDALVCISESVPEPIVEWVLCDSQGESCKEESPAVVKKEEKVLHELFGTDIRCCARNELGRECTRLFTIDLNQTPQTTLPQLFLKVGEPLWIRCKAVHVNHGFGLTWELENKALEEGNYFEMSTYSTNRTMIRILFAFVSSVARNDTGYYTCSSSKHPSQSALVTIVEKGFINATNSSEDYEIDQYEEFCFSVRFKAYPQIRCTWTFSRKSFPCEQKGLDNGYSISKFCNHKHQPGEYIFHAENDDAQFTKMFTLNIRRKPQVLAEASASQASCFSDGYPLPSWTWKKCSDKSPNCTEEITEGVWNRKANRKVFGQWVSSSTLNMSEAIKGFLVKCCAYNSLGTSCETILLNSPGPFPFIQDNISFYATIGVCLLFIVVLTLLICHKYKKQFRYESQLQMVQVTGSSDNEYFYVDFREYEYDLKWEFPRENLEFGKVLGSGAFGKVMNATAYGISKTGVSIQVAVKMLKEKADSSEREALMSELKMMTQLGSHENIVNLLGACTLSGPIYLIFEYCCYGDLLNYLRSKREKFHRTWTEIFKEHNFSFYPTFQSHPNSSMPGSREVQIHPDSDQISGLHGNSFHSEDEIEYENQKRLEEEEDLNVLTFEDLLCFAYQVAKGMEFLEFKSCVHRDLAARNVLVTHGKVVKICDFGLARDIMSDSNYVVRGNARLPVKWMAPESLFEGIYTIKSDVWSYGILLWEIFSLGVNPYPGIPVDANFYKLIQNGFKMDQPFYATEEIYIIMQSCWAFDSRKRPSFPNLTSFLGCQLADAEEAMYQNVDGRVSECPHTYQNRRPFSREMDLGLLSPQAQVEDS

[2] = molecular target: T4, human CD64 (high affinity Fc receptor, FCGR1) on cells (human, UniProt P12314 16-374); assay: flow cytometry, cell surface binding to Ba/F3-pMIY cells expressing CD64, specific MFI, mean ± s.d. of n=3
T4 construct: whole, on cells; also called hCD64; human FCGR1
T4 sequence (P12314 16-374): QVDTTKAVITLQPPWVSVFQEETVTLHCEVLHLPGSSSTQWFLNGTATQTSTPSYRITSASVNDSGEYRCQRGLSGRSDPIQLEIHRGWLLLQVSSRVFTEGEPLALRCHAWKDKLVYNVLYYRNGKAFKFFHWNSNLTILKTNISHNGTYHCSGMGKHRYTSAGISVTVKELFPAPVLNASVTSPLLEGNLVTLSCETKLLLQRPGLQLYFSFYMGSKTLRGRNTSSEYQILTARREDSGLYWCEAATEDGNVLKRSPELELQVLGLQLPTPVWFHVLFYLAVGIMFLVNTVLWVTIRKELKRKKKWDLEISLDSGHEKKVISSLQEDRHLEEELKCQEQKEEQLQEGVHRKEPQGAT

PDGFRα on Ba/F3 cells = molecular target: T5, PDGFRα on Ba/F3 cells (UniProt P16234 24-1089, limits assumed); assay: flow cytometry, cell surface binding to Ba/F3 pMIY cells expressing PDGFRα, MFI ratio normalized to IgG1, mean ± s.d. of n=3
T5 construct: whole, on cells
T5 sequence (P16234 24-1089 limits assumed): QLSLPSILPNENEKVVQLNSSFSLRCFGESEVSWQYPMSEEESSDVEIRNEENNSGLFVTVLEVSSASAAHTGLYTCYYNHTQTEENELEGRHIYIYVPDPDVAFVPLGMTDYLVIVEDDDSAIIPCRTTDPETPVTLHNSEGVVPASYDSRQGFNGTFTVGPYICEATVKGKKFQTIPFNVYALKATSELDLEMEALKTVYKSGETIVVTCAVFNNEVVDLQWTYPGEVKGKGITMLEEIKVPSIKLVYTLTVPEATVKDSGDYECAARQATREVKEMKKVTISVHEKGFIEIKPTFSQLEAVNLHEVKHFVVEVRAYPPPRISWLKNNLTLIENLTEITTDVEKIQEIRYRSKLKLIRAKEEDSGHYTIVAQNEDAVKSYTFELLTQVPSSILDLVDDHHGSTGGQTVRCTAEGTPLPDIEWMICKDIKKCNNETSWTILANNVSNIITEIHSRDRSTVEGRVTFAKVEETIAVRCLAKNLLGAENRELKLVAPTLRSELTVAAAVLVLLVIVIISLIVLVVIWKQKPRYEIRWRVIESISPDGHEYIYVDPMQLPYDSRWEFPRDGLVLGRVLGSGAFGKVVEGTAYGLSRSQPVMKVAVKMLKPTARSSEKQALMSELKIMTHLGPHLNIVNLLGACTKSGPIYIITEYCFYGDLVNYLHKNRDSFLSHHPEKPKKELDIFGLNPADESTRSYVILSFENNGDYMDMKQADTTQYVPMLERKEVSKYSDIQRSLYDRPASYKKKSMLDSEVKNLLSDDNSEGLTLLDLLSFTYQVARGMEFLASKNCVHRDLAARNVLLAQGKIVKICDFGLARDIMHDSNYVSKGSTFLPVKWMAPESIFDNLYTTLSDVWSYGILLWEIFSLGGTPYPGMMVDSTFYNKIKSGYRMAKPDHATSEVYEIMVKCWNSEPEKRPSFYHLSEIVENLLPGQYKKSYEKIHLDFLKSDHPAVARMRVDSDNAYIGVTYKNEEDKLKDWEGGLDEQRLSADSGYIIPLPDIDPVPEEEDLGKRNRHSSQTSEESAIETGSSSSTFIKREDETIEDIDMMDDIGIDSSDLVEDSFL

[3] = molecular target: T6, recombinant human FLT3 protein (human, UniProt P36888 27-541); assay: ELISA with recombinant human FLT3 coated to the plate (results of FIG. 13 summarized)
T6 construct: also called recombinant FLT3 protein; human recombinant FLT3 protein (10445-H08H, Sino Biological)
T6 sequence: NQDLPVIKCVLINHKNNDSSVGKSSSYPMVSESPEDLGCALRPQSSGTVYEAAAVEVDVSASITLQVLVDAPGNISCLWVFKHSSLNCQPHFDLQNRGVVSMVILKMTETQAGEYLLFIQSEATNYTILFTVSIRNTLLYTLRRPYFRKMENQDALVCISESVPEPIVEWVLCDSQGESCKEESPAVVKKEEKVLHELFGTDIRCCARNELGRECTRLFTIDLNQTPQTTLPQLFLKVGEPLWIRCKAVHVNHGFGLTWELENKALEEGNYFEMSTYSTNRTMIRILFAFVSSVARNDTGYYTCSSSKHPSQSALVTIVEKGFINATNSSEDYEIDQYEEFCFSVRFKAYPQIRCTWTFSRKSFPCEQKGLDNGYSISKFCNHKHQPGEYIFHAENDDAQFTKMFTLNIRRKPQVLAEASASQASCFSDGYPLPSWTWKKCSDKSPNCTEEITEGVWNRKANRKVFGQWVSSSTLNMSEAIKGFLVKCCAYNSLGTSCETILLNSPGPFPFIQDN
Description: Maxisorp plates were coated with human recombinant FLT3 protein (10445-H08H, Sino Biological). […] For detection, Attophos Fluorescent Substrate System (S1000, Promega) was applied. The fluorescence was read with excitation of 405 nm and emission at 500-550 nm. The calculation of the dissociation constant KD was performed using GraphPad Prism version 9.4.0.
The 12 clones were subsequently analysed in ELISA assays (FIG. 13). Therefore, recombinant human FLT3 was coated on plates and incubated with the antibody candidates. […] Mean±s.d. of n=3 biological replicates.

T1 sequence (P10721 26-976 limits assumed): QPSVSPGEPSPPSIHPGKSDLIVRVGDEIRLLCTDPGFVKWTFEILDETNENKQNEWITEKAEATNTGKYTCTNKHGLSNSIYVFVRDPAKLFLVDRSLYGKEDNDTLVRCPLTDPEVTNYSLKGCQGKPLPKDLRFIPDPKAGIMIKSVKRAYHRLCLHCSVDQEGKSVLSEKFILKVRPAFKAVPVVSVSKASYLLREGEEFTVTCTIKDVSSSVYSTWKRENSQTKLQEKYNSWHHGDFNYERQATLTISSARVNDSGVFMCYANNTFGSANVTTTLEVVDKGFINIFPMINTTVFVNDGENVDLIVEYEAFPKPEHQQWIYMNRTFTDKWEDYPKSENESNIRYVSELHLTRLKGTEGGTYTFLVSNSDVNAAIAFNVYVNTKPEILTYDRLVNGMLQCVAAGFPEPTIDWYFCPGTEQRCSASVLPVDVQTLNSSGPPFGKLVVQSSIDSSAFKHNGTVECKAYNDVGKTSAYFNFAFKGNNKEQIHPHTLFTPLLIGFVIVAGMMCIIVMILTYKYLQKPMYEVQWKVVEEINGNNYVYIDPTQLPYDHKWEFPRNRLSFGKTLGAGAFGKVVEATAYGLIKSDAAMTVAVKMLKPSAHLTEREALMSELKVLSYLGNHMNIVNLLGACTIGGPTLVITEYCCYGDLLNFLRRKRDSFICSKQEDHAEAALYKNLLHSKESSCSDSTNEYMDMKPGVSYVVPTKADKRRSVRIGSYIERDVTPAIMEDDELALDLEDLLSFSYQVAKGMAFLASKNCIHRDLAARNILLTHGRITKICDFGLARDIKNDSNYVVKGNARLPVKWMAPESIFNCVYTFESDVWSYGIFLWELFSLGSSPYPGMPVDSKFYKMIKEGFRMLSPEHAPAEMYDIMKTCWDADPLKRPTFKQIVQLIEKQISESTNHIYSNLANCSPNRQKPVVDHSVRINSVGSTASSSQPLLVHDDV

binding result (c-KIT on Ba/F3 cells): no binding
binding result (VEGFR-2 on Ba/F3 cells): no binding
Binding to human FLT3 (MFI ratio to IgG1 control) [1]: 95.3
binding result [2]: binds
binding result (PDGFRα on Ba/F3 cells): no binding
Kd [3]: 0.0113 µg/mL
B1: Humanized clone 3 of 20D9 (VH3 + VK1) (antibody, human IgG1, kappa)
heavy: not shown
light: DIQMTQSPSVLSASVGDRVTINCRASQNINKELNWYQQKLGEAPKLLIYNTNNLQSGVPSRFSGSGSGTDYTLTISSLQPEDVATYFCFQHKSWPLTFGSGTKLEIKRTVAAPSVFIFPPSDEQLKSGTASVVCLLNNFYPREAKVQWKVDNALQSGNSQESVTEQDSKDSTYSLSSTLTLSKADYEKHKVYACEVTHQGLSSPVTKSFNRGEC
notes: also called candidate #3; #3 mab
